Measured values reported in US9212226B2, “Amino acid sequences directed against CXCR4 and other GPCRs and compounds comprising the same” (Ablynx N.V., priority 2008, dated 2015).
“Also recorded” adds a separate entry of the source. Marks after values point to notes of the source that are not given here.

T1: CCR7 (Homo sapiens, UniProt P32248)
T1 sequence (P32248 25-378): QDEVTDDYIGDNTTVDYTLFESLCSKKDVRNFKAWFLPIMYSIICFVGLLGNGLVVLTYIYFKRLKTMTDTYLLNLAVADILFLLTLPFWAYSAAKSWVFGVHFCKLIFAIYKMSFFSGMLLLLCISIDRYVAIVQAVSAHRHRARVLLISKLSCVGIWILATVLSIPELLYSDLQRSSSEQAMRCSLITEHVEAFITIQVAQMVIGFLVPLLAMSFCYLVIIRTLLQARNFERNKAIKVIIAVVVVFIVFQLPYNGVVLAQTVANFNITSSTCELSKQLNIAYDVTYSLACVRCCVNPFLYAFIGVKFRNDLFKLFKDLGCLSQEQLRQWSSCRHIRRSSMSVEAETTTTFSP

B1: 238D2: Nanobody (VHH) raised against human CXCR4, SEQ ID NO: 238 (protein)
VHH: EVQLVESGGGLVQTGGSLRLSCAASGFTFSSYAMSWVRQAPGKGLEWVSGIKSSGDSTRYAGSVKGRFTISRDNAKNMLYLQMYSLKPEDTAVYYCAKSRVSRTGLYTYDNRGQGTQVTVSS
modifications: Nanobody, Nanobody constructs or fragments thereof
B2: 238D4: Nanobody (VHH) raised against human CXCR4, SEQ ID NO: 239 (protein)
VHH: EVQLMESGGGLVQAGGSLRLSCAASGRTFNNYAMGWFRRAPGKEREFVAAITRSGVRSGVSAIYGDSVKDRFTISRDNAKNTLYLQMNSLKPEDTAVYTCAASAIGSGALRRFEYDYSGQGTQVTVSS
modifications: Nanobody, Nanobody constructs or fragments thereof

Legend:
CXCR4 (N119A) [1] = target: T2, CXCR4 (N119A) (Homo sapiens, UniProt P61073, N119A); assay: [125I]-CXCL12 competition binding on the constitutively active CXCR4 mutant N119A; conditions: for binding to / displacement of [125I]-CXCL12 from CXCR4 (N119A): highest test concentration 2 μM, n=3
T2 sequence (P61073 whole entry N119A): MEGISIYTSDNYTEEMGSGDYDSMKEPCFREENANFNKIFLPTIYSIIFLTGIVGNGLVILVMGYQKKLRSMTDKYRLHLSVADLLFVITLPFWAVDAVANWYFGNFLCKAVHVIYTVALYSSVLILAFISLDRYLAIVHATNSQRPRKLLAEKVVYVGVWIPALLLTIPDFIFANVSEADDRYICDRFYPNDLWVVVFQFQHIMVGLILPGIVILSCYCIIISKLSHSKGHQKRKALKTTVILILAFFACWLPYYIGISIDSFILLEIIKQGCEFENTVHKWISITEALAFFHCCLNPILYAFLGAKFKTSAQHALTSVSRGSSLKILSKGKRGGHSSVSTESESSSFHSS
Method: HEK293T cells were maintained at 37° C. in a humidified 5% CO2, 95% air atmosphere in Dulbecco's modified Eagle's medium (DMEM) containing 2 mM L-glutamine, 50 IU/ml penicillin, 50 μg/ml streptomycin, and 10% (v/v) fetal calf serum. Jurkat cells were cultured in a humidified 5% CO2, 95% air atmosphere in a 1:1 mixture of Dulbecco's modified Eagle's medium (DMEM) and Ham's F12 medium containing 2 mM L-glutamine, 50 IU/ml penicillin, 50 μg/ml streptomycin, and 10% (v/v) fetal calf serum. […] [^125 I]-Labelling— Radiolabeling of Nanobodies with ^125I was performed using the Iodo-gen method (Pierce, Rockford, Ill.) according to the manufacturer's protocol. ^125I-labeled Nanobodies was separated from free iodine (>99%) using a Sephadex G-25 gel filtration column (Amersham Biosciences, Piscataway, N.J.). […] Competition Binding Assays— Membranes from HEK293T cells transiently expressing CXCR3 or CXCR4 were prepared 48 h after transfection as follows. Cells were washed and scraped from the cell culture dishes with ice-cold PBS containing 1 mm EDTA. The scraped cells were pelleted at 1500×g for 10 min at 4° C. The pellet was washed and then resuspended in ice-cold membrane buffer (15 mM Tris, pH 7.5, 1 mM EGTA, 0.3 mM EDTA, and 2 mM MgCl2). The cell suspension was homogenized by 10 strokes at 1200 rpm using a Teflon-glass homogenizer and rotor and further subjected to three freeze-thaw cycles using liquid nitrogen. Membranes were separated by centrifugation at 40,000 g for 25 min at 4° C. The membrane pellet was washed and resuspended in ice-cold Tris-sucrose buffer (20 mM Tris, pH 7.4, and 250 mM sucrose) and frozen in liquid nitrogen. The total protein was determined using a Bradford assay (Bio-Rad). Periplasmas (1:10) or ligands were pre-incubated with membranes in binding buffer (50 mM HEPES (pH 7.4), 1 mM CaCl2, 5 mM MgCl2, 100 mM NaCl, 0.5% bovine serum albumin) supplemented with 0.5% BSA for 1 h at 22° C. before the addition of [^125I]-CXCL12 (40 pM) or [^125I]-238D2 (3 nM) or [^125I]-238D4 (3 nM) for additional 2 h at 22° C. […] Membranes were then harvested over polyethylenimine (0.5%)-treated Whatman GF/C filter plates and washed three times with ice cold binding buffer containing 500 mM NaCl. Plates were counted by liquid scintillation. Inositol Phosphate Accumulation Assay— 24 hours post transfection with pcDNA3.1-CXCR4 and pcDNA1-HA-mG {alpha} qi5 (see Verzijl et al, 2008 supra), 250.000 cells were seeded into 24-wells plates and labelled overnight using inositol-free minimal essential medium supplemented with 1 μCi myo-[2-^3H]-inositol. The next day, the cells were washed once to remove not incorporated myo-[2-^3H]-inositol. […] The accumulated inositol phosphates were isolated by anion exchange chromatography and counted by liquid scintillation. […]

CXCR6 = CXCR6 (Homo sapiens, UniProt O00574); assay: CRE/β-galactosidase reporter gene selectivity screen, CXCR6; format: cell-based; conditions: up to 2.5, forskolin 3 μM, agonist at 50-80% Emax
Sequence of CXCR6 (O00574 whole entry, species assumed): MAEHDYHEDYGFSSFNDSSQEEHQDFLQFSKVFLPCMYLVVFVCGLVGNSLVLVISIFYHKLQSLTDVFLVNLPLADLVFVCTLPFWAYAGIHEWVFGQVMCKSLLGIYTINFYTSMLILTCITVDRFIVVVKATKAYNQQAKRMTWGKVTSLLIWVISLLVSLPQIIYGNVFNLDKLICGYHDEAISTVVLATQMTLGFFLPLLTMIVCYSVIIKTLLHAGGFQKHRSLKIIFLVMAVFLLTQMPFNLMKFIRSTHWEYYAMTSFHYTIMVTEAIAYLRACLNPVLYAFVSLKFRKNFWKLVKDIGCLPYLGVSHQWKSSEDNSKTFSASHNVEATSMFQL
Method: (§1) Data are shown as means±S.E.M. (n=2-3).
(§2) HEK293T cells were maintained at 37° C. in a humidified 5% CO2, 95% air atmosphere in Dulbecco's modified Eagle's medium (DMEM) containing 2 mM L-glutamine, 50 IU/ml penicillin, 50 μg/ml streptomycin, and 10% (v/v) fetal calf serum. Jurkat cells were cultured in a humidified 5% CO2, 95% air atmosphere in a 1:1 mixture of Dulbecco's modified Eagle's medium (DMEM) and Ham's F12 medium containing 2 mM L-glutamine, 50 IU/ml penicillin, 50 μg/ml streptomycin, and 10% (v/v) fetal calf serum. […] [^125 I]-Labelling— Radiolabeling of Nanobodies with ^125I was performed using the Iodo-gen method (Pierce, Rockford, Ill.) according to the manufacturer's protocol. ^125I-labeled Nanobodies was separated from free iodine (>99%) using a Sephadex G-25 gel filtration column (Amersham Biosciences, Piscataway, N.J.). […] Competition Binding Assays— Membranes from HEK293T cells transiently expressing CXCR3 or CXCR4 were prepared 48 h after transfection as follows. Cells were washed and scraped from the cell culture dishes with ice-cold PBS containing 1 mm EDTA. The scraped cells were pelleted at 1500×g for 10 min at 4° C. […] The total protein was determined using a Bradford assay (Bio-Rad). […] Plates were counted by liquid scintillation. […] The accumulated inositol phosphates were isolated by anion exchange chromatography and counted by liquid scintillation. […]

CXCR4 = CXCR4 (Homo sapiens, UniProt P61073); assay: CRE/β-galactosidase reporter gene assay in HEK293T cells expressing CXCR4; format: cell-based; conditions: for Schild slope: log(CR-1) vs -log[Nanobody]
Sequence of CXCR4 (P61073 whole entry): as the sequence (P61073 whole entry N119A) above, with A119N counted along it
Method: (§3) HEK293T cells were maintained at 37° C. in a humidified 5% CO2, 95% air atmosphere in Dulbecco's modified Eagle's medium (DMEM) containing 2 mM L-glutamine, 50 IU/ml penicillin, 50 μg/ml streptomycin, and 10% (v/v) fetal calf serum. Jurkat cells were cultured in a humidified 5% CO2, 95% air atmosphere in a 1:1 mixture of Dulbecco's modified Eagle's medium (DMEM) and Ham's F12 medium containing 2 mM L-glutamine, 50 IU/ml penicillin, 50 μg/ml streptomycin, and 10% (v/v) fetal calf serum. […] [^125 I]-Labelling— Radiolabeling of Nanobodies with ^125I was performed using the Iodo-gen method (Pierce, Rockford, Ill.) according to the manufacturer's protocol. ^125I-labeled Nanobodies was separated from free iodine (>99%) using a Sephadex G-25 gel filtration column (Amersham Biosciences, Piscataway, N.J.). […] Competition Binding Assays— Membranes from HEK293T cells transiently expressing CXCR3 or CXCR4 were prepared 48 h after transfection as follows. Cells were washed and scraped from the cell culture dishes with ice-cold PBS containing 1 mm EDTA. The scraped cells were pelleted at 1500×g for 10 min at 4° C. The pellet was washed and then resuspended in ice-cold membrane buffer (15 mM Tris, pH 7.5, 1 mM EGTA, 0.3 mM EDTA, and 2 mM MgCl2). The cell suspension was homogenized by 10 strokes at 1200 rpm using a Teflon-glass homogenizer and rotor and further subjected to three freeze-thaw cycles using liquid nitrogen. Membranes were separated by centrifugation at 40,000 g for 25 min at 4° C. The membrane pellet was washed and resuspended in ice-cold Tris-sucrose buffer (20 mM Tris, pH 7.4, and 250 mM sucrose) and frozen in liquid nitrogen. The total protein was determined using a Bradford assay (Bio-Rad). Periplasmas (1:10) or ligands were pre-incubated with membranes in binding buffer (50 mM HEPES (pH 7.4), 1 mM CaCl2, 5 mM MgCl2, 100 mM NaCl, 0.5% bovine serum albumin) supplemented with 0.5% BSA for 1 h at 22° C. before the addition of [^125I]-CXCL12 (40 pM) or [^125I]-238D2 (3 nM) or [^125I]-238D4 (3 nM) for additional 2 h at 22° C. […] Membranes were then harvested over polyethylenimine (0.5%)-treated Whatman GF/C filter plates and washed three times with ice cold binding buffer containing 500 mM NaCl. Plates were counted by liquid scintillation. Inositol Phosphate Accumulation Assay— 24 hours post transfection with pcDNA3.1-CXCR4 and pcDNA1-HA-mG {alpha} qi5 (see Verzijl et al, 2008 supra), 250.000 cells were seeded into 24-wells plates and labelled overnight using inositol-free minimal essential medium supplemented with 1 μCi myo-[2-^3H]-inositol. The next day, the cells were washed once to remove not incorporated myo-[2-^3H]-inositol. […] In agonist experiments, the cells were directly stimulated with test compounds and LiCl (10 mM) in assay buffer for 2 h at 37° C. The stimulation was stopped by aspirating the stimulation medium and adding ice-cold 10 mM formic acid. The accumulated inositol phosphates were isolated by anion exchange chromatography and counted by liquid scintillation. CRE Reporter Gene Assay— HEK239T cells were transfected with pCRE/β-galactosidase (Chen W, Shields T S, Stork P J S, Cone R D (1995) Anal Biochem 226:349-354) and plasmids (pcDEF3 or pcDNA3.1) encoding the indicated receptors. 40,000 transfected cells per well were seeded into 96 well plates and grown in DMEM supplemented with 10% fetal calf serum. The medium was replaced 32 h after transfection by serum-free DMEM supplemented with 0.5% bovine serum albumin and ligands as indicated. Following 16 h of ligand incubation, the medium was removed, the cells were lysed in 100 μl of assay buffer (100 mM sodium phosphate buffer at pH 8.0, 4 mM 2-nitrophenol-β-D-pyranoside, 0.5% Triton X-100, 2 mM MgSO4, 0.1 mM MnCl2, and 40 mM β-mercaptoethanol) and incubated at room temperature. […]

CCR7 = target: T1, CCR7; assay: CRE/β-galactosidase reporter gene selectivity screen, CCR7; format: cell-based; conditions: up to 2.5, forskolin 3 μM, agonist at 50-80% Emax
CXCR4 (N119A) [2] = target: T2, CXCR4 (N119A); assay: Basal inositol phosphate accumulation in HEK293T cells expressing CXCR4 (N119A); format: cell-based; conditions: ligand-induced alteration of basal inositol phosphate accumulation
Method: as §3, with “indicated.” for “indicated. Following 16 h of ligand incubation, the medium was removed, the cells were lysed in 100 μl of assay buffer (100 mM sodium phosphate buffer at pH 8.0, 4 mM 2-nitrophenol-β-D-pyranoside, 0.5% Triton X-100, 2 mM MgSO4, 0.1 mM MnCl2, and 40 mM β-mercaptoethanol) and incubated at room temperature.”

[3] = tested on: Jurkat cells endogenously expressing CXCR4; assay: Chemotaxis assay (ChemoTx plates) with Jurkat cells towards CXCL12; format: cell-based
Method: as §3

CCR5 = CCR5 (Homo sapiens, UniProt P51681); assay: CRE/β-galactosidase reporter gene selectivity screen, CCR5; format: cell-based; conditions: up to 2.5, forskolin 3 μM, agonist at 50-80% Emax
Sequence of CCR5 (P51681 whole entry): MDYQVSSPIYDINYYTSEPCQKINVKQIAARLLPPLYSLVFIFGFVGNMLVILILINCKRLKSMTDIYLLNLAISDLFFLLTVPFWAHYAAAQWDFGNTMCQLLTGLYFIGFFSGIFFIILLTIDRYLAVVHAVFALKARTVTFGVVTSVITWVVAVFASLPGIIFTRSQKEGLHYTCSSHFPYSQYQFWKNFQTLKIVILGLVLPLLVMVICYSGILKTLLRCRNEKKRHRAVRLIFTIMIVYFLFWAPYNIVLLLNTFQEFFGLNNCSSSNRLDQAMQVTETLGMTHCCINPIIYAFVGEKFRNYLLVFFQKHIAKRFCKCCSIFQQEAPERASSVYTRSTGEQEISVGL
Method: as §1, §2

[4] = HEK293T-CXCR4-CREbgal/0.01-100 nM CXCL12, mean ± S.E.M.
[5] = Jurkat/0.3 nM CXCL12, monovalent Nanobodies, mean ± S.E.M.

Row | Molecule | binding affinity at CXCR4 (N119A) compared to the wild type receptor (CXCR4 (N119A) [1]) | binding to / displacement of [125I]-CXCL12 from CXCR4 (N119A) (CXCR4 (N119A) [1]) | effect on agonist-induced response at CXCR6 (CXCR6) | agonist activity in the absence of CXCL12, CRE reporter (CXCR4) | mode of antagonism of the CXCL12-induced activation of signal transduction (CXCR4) | Imax (%), CRE activation (CXCR4; [4]) | pKi or pIC50, CRE activation (CXCR4; [4]) | pKB (CXCR4; from Schild plot data, CXCL12-induced reporter gene response) | Schild slope (CXCR4) | effect on agonist-induced response at CCR7 (CCR7) | functional profile at CXCR4 (N119A) (CXCR4 (N119A) [2]) | Imax (%), Chemotaxis [3, 5] [%] | pKi or pIC50, Chemotaxis [3, 5] | effect on agonist-induced response at CCR5 (CCR5) | inhibition of migration of Jurkat cells towards CXCL12 ([3]; 300 pM CXCL12) | induction of migration of Jurkat cells (agonism) ([3]; test compound in lower compartment)
1 | B1 | somewhat less | displace; also recorded: able to bind | do not act as agonists or antagonists; also recorded: do not alter | No agonist activity; also recorded: did not show any agonist activity | competitive antagonism | 104 ± 5^a % | 7.64 ± 0.16^b | 7.64±0.16 | 0.91±0.20 | do not act as agonists or antagonists; also recorded: do not alter | neutral antagonist; also recorded: Neither significant agonistic nor inverse antagonistic activity | 106 ± 2 | 8.33 ± 0.16 | do not act as agonists or antagonists; also recorded: do not alter | – | –
2 | B2 | somewhat less | displace; also recorded: able to bind | do not act as agonists or antagonists; also recorded: do not alter | No agonist activity; also recorded: did not show any agonist activity | competitive antagonism | 90 ± 15^a % | – | – | 0.71±0.17 | do not act as agonists or antagonists; also recorded: do not alter | inverse antagonists; also recorded: partial inverse agonists | 101 ± 4 | – | do not act as agonists or antagonists; also recorded: do not alter | concentration-dependently inhibited | unable to induce any significant migration
